Laboratory results: patent US20250034594A1, “RNA-GUIDED GENOME RECOMBINEERING AT KILOBASE SCALE” (THE BOARD OF TRUSTEES OF THE LELAND STANFORD JUNIOR …, priority 2021, published 2025)

B1: SSAP_4: SEQ ID NO: 166 (protein)
chain: MSTALATLAGKLAERVGMDSVDPQELITTLRQTAFKGDASDAQFIALLIVANQYGLNPWTKEIYAFPDKQNGIVPVVGVDGWSRIINENQQFDGMDFEQDNESCTCRIYRKDRNHPICVTEWMDECRREPFKTREGREITGPWQSHPKRMLRHKAMIQCARLAFGFAGIYDKDEAERIVENTAYTAERQPERDITPVNDETMQEINTLLIALDKTWDDDLLPLCSQIFRRDIRASSELTQAEAVKALGFLKQKAAEQKVAA
modifications: Lambda
B2: SSAP_193: SEQ ID NO: 362; Mesotoga sp. TolDC (protein, listed as Mesotoga sp.)
chain: KASEIASMVKKEDERRNHKPDPLAGIVKNLTSIKGEIANALPDAGITPERMIRIVVTLLRQNKSLAEAAMQNPASLLGAVMMAAQLGLDPTNGLDQCALVPRKGKVCFDIMYEGLVELGYRSDRMESIVARTVYEKDTFSLKYGLNEELVHIPYLDGDPGESKGYYMVGKLKGGGNIIVYMTKEQVHKIRDRYSVAYKAGLSGSRKDSPWFTSEDRMGEKTVVKAGFRWIPKSPIIRTALALDETAREASRLPMRN
B3: SSAP_221: SEQ ID NO: 390; Streptomyces sp. 351MFTsu5.1 (protein, listed as Streptomyces sp.)
chain: SQISNAIEKRDQGPGAVIEQYKQELALVAASHVKVDTFARLAVGALRQNPKLAAAAQSNPGSLMSALMTAARLGLEPGTEQFYLRPIKRKGVAEVQGIVGYQGIVELIYNAGAASSVVVEVVRANDQFNYVPGLHERPVHNVDWFGDRGDLVGVYAYAVMAGGATSKVVVLSRTHINRAKAKSDGADSDYSPWRTDEEAMWLKTAARRLGKWVPTSAERLTMPAERTDTVLPVGSAAPALDAADPDEDEGPVDGELEPAGGWPETAQPPQ
B4: SSAP_36: SEQ ID NO: 205 (protein)
chain: SSIAAAAESAEVTPASIINKYRDDIATVLPPKLRERIDRWIRLAIGAVNSNPELISRVRADQGASMMQALMKCAALGHEPGSGLFHLVPKGSRIEGWEDYKGILQRIDRSGVYARTVIGVVYANDEYSYDQNVDERPRHVRATGDRGEPISSYAYAVYPSGAITTVAEATPEQIASSKSKARGADNAASPWRAPGAPMHRKVAVRLLEKHVATSAEDRREPISRSAANDVVIDATADYYQEP
B5: SSAP_194: SEQ ID NO: 363; Streptomyces sp. CS014 (protein, listed as Streptomyces sp.)
chain: TENTVTAAVAVRDTGPAAQIEAYRDEYAALVPSHINADQWVRLAVGAIRGNEDLTNAARTDIGVFLRELKTAARLGLEPGTEQFYLTPRKSKAHRGQKIIKGIVGYQGIIELIYRAGAVSSVIVESVRANDTFRYVIGRDERPVHEIDWFGGDRGDLVGVYAYATMKDGATSKVVVLNHAQVMQIRAKSDSKHSEYSPWNTNPESMWLKSAVRQLMKWVPTSAEYMREQLRAQAEVAAEQPPAADLPPMPSVELNDEDEAVDAELVDEEA
B6: SSAP_158: SEQ ID NO: 327; Nakamurella lactea (protein)
chain: ASNLAARAAEQVEQQTAPNRPPTIKEQIGRMESQFALAMPRGSEAAQLVRDAITAINTNPQLAECTPASVLGALMTCAQLGLRPGVLGHAWVLPFRSKGVMQAQLVIGYQGLVELAHRTGQVASLIAREVHERDHFDVDYGLADSLIHKPLLNGDRGPVTGYYAIVKFKGGGHSFIYASKADVEAHRDKFSKMKSFGPWVDNFDSMALKTVVRMLAKWMPKSTEFANAISADEGVRVDYSPTADVAQATEYVQPQLEEAPVEGVVVSEGGES
modifications: Nakamurella lacteal
notes: Nakamurella lactea
B7: SSAP_305: SEQ ID NO: 474 in b312 (Table 9 prints 424); Clostridium akagii (protein, listed as Clostridium akagii)
chain: ATSESLKNQLVNKETRPPKDPFKALVYSAGIKKRFEDMLDKQANGFITSLLNLKQDKLKSCDDFTVLGSALKAAALKLPIDPNLGFAWIIPFKNHGKLEAQFQIGYKGFIQMAQRSGQYKKLNVTEIYEGQLKSFNPLTEEIVLDLDNIKSDLRKINKRYLIVMRMNLLALHLRKISKG
B8: SSAP_197: SEQ ID NO: 366; Arsenophonus sp. ENCA (protein, listed as Arsenophonus sp.)
chain: NTELETMNNVYDNLQSVIMQQGIAALLPAQVTPEQFTRTAATALIENVDLQNADKQSLVLALTRCAKDGLMPDGREAALVVRSTKVNKQFVKKAVYMPMVDGVIKRARQSGQVANIIAKVVYSQDEFEYVIDENGEHLTHRPAFVDGDDIVKVYAFAKLNSGELVVEVMSRAGVEKIRDTVQSAKYDSSPWVKWFDRMALKTVIHRLARRLPCASELFSLFEVYEDANSTEKTLRMAPASFKRLSIN
B9: SSAP_12: SEQ ID NO: 181 (protein)
chain: STALATLAGKLAERVGMDSVDPQELITTLRQTAFKGDASDAQFIALLIVANQYGLNPWTKEIYAFPDKQNGIVPVVGVDGWSRIINENQQFDGMDFEQDNESCTCRIYRKDRNHPICVTEWMDECRREPFKTREGREITGPWQSHPKRMLRHKAMIQCARLAFGFAGIYDKDEAERIVENTAYTAERQPERDITPVNDETMQEINTLLIALDKTWDDDLLPLCSQIFRRDIRASSELTQAEAVKALGFLKQKASEQKVAA
B10: SSAP_262: SEQ ID NO: 431; YqaK Schleiferilactobacillus shenzhenensis LY-73 (protein, listed as Schleiferilactobacillus shenzhenensis)
chain: SAVSESKDLQHVDQLSVLNSAMTAASLNLPINQNLGFFYLVPYKGIAQAQMGYKGYIQLAQRSGQYQRLNAIPVYADEFGSWNPLTEELDYTPHFEDRKASDKPVGYVGFFKLANGFEKTVYWSRKQIEAHRDRFSKSSKSSASPWNTDFDAMALKTVLRNLITKWGPMTTDIQRANDADEGDYKNDLSTDTSEPKDVTPGASLEQFLGETDQQQKPATKPAPKKKAEEAKPNDLKPDVTHDPNEHTEQTSLSDDDLPFD

system: gene editing with Cas9; assay: Screen of 322 new SSAP proteins, gene editing activity with Cas9 (Table 5); format: cell-based; set-up: Cas9 with SSAP activity: scale not given here; settings: not given
Procedure, shortened: (§1)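 Synthetic SSAP candidates, identified computationally, were tested in editing screens using both Cas9 and dCas9.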

Molecule	Cas9 with SSAP activity
B1	−2.882
B2	−0.442
B3	−4.494
B4	−4.118
B5	2.727
B6	−1.229
B7	0.745
B8	−2.785
B9	−7.814
B10	−2.947

same assay, conditions: normalized

Molecule	Cas9 with SSAP activity (normalized)
B1	−0.474
B2	−0.140
B3	−0.728
B4	−0.619
B5	3.516
B6	−0.520
B7	0.408
B8	−1.134
B9	−1.324
B10	−0.511

system: mammalian cells; assay: Arrayed SSAP library screening, cell viability by live cell counts via flow cytometry; format: cell-based; settings: not given
Description: (§2) Each SSAP encoding plasmid was tested in duplicate, including a negative control (same plasmid encoding Flag_HA which is not expected to promote gene editing). Transfections were in 96-well plates and transfection efficiency was estimated to be 50%.
(§3) Three days after transfection, mKate positive cells and cell viability were quantified across all replicates, along with positive (original RecT SSAP) and negative (Flag-HA control protein) controls. […] At the same time, the cell viability was measured by live cell counts via flow cytometry, to help quantify the fitness effect of SSAP on mammalian cells.
(§4) SSAP proteins are identified by Uniparc deposit number and SEQ ID NO. Alignment numbers correspond to SSAPs in FIGS. 58, 59, and 60.

Molecule	Cell Viability (Average, two targets)
B1	1.192
B2	1.147
B3	0.9772
B4	0.9418
B5	1.139
B6	0.9945
B7	0.5578
B8	1.021
B9	1.291
B10	1.122

system: gene editing with Cas9 and dCas9; assay: Screen of 322 new SSAP proteins, activity across all experiments (Cas9 and dCas9, Table 5); format: cell-based; set-up: scale not given here; settings: not given
Procedure, shortened: as §1

Molecule	Activity across all experiments
B1	−4.940
B2	−3.196
B3	−6.275
B4	−6.514
B5	−3.031
B6	−4.070
B7	−2.644
B8	−4.703
B9	−7.690
B10	−4.769

system: endogenous genome targets (ACTB, HSP90AA1); assay: Arrayed SSAP library screening, mKate knock-in assay (editing efficiency); format: cell-based; settings: fold over negative control (Flag_HA); average of HSP90 and ACTB; 3 days after transfection
Description: Arrayed SSAP library screening on endogenous genome targets (ACTB. HSP90AA1) using mKate knock-in assay.
SSAP-encoding plasmids were purified and quantified.
as §2, §3, §4

Molecule	Editing Efficiency (Normalized, Average, two targets)
B1	5.57
B2	5.034
B3	4.587
B4	6.383
B5	4.924
B6	5.44
B7	4.612
B8	5.661
B9	4.263
B10	3.676

same assay, conditions: percent of mKate knock-in; average of HSP90 and ACTB; 3 days after transfection

Molecule	Editing Efficiency (Absolute, Average, two targets)
B1	13.8
B2	12.465
B3	11.35
B4	15.8
B5	12.175
B6	13.45
B7	11.425
B8	14.025
B9	10.5525
B10	9.1025

system: gene editing with dCas9; assay: Screen of 322 new SSAP proteins, gene editing activity with dCas9 (Table 5); format: cell-based; set-up: dCas9 with SSAP activity: scale not given here; settings: not given
Procedure, shortened: as §1

Molecule	dCas9 with SSAP activity
B1	−6.997
B2	−5.951
B3	−8.056
B4	−8.909
B5	−8.790
B6	−6.910
B7	−6.032
B8	−6.622
B9	−7.567
B10	−6.590

same assay, conditions: normalized

Molecule	dCas9 with SSAP activity (normalized)
B1	−1.447
B2	−1.083
B4	−1.787
B6	−1.386
B7	−1.721
B8	−1.370
B9	−1.196
B10	−1.417
